Experimental data as given in publication PMC3269530 (Journal of Molecular Biology, 2011).

Columns and labels:
ArfA-c [1] = molecular target: ArfA-c (Mycobacterium tuberculosis, UniProt P9WIU5); assay: biochemical; type: binding
ArfA-c [2] = type: binding, M. tuberculosis
[3] = test system: ArfA (S302 amide proton, β3-α4 loop); assay: Saturation transfer difference NMR; type: binding, M. tuberculosis
[4] = type: binding, Mycobacterium tuberculosis, strain H37Rv; settings: qualitative

Molecule: CC(=O)N[C@H]1[C@@H](OP(=O)(O)OP(=O)(O)OC[C@H]2O[C@@H](n3ccc(=O)[nH]c3=O)[C@H](O)[C@@H]2O)O[C@H](CO)[C@@H](O)[C@@H]1O[C@H](C)C(=O)N[C@@H](C)C(=O)N[C@H](CCC(=O)N[C@@H](CCC[C@@H](N)C(=O)O)C(=O)N[C@H](C)C(=O)N[C@H](C)C(=O)O)C(=O)O [UMDP, uridine-5'-diphosphate–MurNAc–L-Ala–D-γ-Glu–m-DAP–D-Ala–D-Ala (Park's nucleotide)]
- Kd (ArfA-c [1]): ~1000 µM

Molecule: CC(=O)N[C@H]1C(OP(=O)(O)OP(=O)(O)OC[C@H]2O[C@@H](n3ccc(=O)[nH]c3=O)[C@H](O)[C@@H]2O)O[C@H](CO)[C@@H](O)[C@@H]1O[C@H](C)C(=O)N[C@@H](C)C(=O)N[C@H](CCC(=O)N[C@@H](CCCCN)C(=O)N[C@H](C)C(=O)N[C@H](C)C(=O)O)C(=O)O (stereo partly drawn) [UMKP, uridine-5'-diphosphate–MurNAc–L-Ala–D-γ-Glu–L-Lys–D-Ala–D-Ala]
- effect on the NMR spectrum of ArfA-c (ArfA-c [2]): no effect

Molecule: uridine-5'-diphosphate–MurNAc–L-Ala–D-γ-Glu–m-DAP–D-Ala– D-Ala [UMDP]
- Kd (ArfA-c [2]): ~1000 µM
- proximity of S302 amide proton to MurNAc methyl protons [3]: in some proximity

B1: ArfA-bc: joint B and C domains of ArfA, residues 73–326 (protein)
chain: GASALSLSLLSISRSGNTVTLIGDFPDEAAKAALMTALNGLLAPGVNVIDQIHVDPVVRSLDFSSAEPVFTASVPIPDFGLKVERDTVTLTGTAPSSEHKDAVKRAATSTWPDMKIVNNIEVTGQAPPGPPASGPCADLQSAINAVTGGPIAFGNDGASLIPADYEILNRVADKLKACPDARVTINGYTDNTGSEGINIPLSAQRAKIVADYLVARGVAGDHIATVGLGSVNPIASNATPEGRAKNRRVEIVVN
- stabilization provided by the disulfide bond (GSSG vs DTT, Sypro orange DSF, Fig. 2a): about 1 °C

B2: ArfA-c: C domain of M. tuberculosis ArfA (Rv0899), residues 196–326 (protein)
chain: GQAPPGPPASGPCADLQSAINAVTGGPIAFGNDGASLIPADYEILNRVADKLKACPDARVTINGYTDNTGSEGINIPLSAQRAKIVADYLVARGVAGDHIATVGLGSVNPIASNATPEGRAKNRRVEIVVN
- affinity for polymeric M. tuberculosis peptidoglycan [4]: strong (enough to precipitate the protein)
- temperature of thermal unfolding, pH 4 (pH4, 15 µM protein, Sypro orange, 20-95°C, 0.03°C per second, Fig. 2d): 65.0 °C
- temperature of thermal unfolding, pH 7 (pH7, 15 µM protein, Sypro orange, 20-95°C, 0.03°C per second, Fig. 2d): 63.2 °C
- increase in temperature of thermal unfolding on lowering pH from 7 to 4 (pH 7 to 4, Sypro orange DSF, Fig. 2d): 2 °C
